Experimental data from article PMC9445180 (2022).

How the values were obtained:
HTRA3^PD/PDZ-LoopA^HTRA1 = target: T1, HTRA3^PD/PDZ-LoopA^HTRA1 (human, UniProt P83110 130-160; P83110 171-453); experiment: SPR
T1 chain: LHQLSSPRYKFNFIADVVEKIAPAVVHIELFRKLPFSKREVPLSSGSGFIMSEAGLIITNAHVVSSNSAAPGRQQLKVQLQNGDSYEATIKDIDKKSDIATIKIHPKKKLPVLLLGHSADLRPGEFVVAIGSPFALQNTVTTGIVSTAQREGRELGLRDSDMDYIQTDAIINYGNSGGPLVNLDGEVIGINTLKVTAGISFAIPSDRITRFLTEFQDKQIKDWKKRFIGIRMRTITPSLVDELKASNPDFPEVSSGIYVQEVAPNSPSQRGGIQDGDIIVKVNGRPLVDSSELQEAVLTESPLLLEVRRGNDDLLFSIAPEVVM

HTRA2^PD/PDZ-LoopA^HTRA1 = target: T2, HTRA2^PD/PDZ-LoopA^HTRA1 (human, UniProt O43464 134-167; O43464 178-458); experiment: SPR
T2 chain: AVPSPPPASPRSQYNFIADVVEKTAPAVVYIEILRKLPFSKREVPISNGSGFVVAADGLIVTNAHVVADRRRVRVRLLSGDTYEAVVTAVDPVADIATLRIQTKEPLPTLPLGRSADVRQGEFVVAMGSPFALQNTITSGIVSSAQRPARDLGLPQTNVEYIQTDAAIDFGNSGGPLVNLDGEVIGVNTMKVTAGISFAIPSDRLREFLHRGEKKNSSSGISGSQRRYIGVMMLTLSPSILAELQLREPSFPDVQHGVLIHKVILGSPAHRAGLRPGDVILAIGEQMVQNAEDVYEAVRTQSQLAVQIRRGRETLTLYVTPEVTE

- Kd (HTRA3^PD/PDZ-LoopA^HTRA1): 35.6 pM
- Kd (HTRA2^PD/PDZ-LoopA^HTRA1): 52.6 pM
B1: Fab15H6.v4 (Fab, V domains shown)
VH: EVQLVQSGAEVKKPGASVKVSCKASGYKFTDSEMHWVRQAPGQGLEWIGGVDPETEGAAYNQKFKGRATITRDTSTSTAYLELSSLRSEDTAVYYCTRGYDYDYALDYWGQGTLVTVSS
VL: DIQMTQSPSSLSASVGDRVTITCRASSSVEFIHWYQQKPGKAPKPLISATSNLASGVPSRFSGSGSGTDFTLTISSLQPEDFATYYCQQWSSAPWTFGQGTKVEIK
